Laboratory results reported in patent publication US20160152995A1, “METHODS AND COMPOSITIONS TO IMPROVE THE SPREAD OF CHEMICAL SIGNALS IN PLANTS” (PIONEER HI-BRED INTERNATIONAL, INC., priority 2013, published 2016).

Test system: β-gal background activity
Assay: First and second round library screen (L1, L2) for induction by sulfonylurea ligands, β-gal colony assay
Assay type: cell-based, E. coli
Description: The original library was designed to thifensulfuron, but once induction activity was established with other SU compounds having potentially better soil and in planta stability properties than the original ligand, the evolution process was re-directed towards these alternative ligands. Of particular interest were herbicides metsulfuron, sulfometuron, ethametsulfuron and chlorsulfuron. For this objective, parental clones L1-9, -22, -29 and -44 were chosen for further shuffling. Clone L1-9 has strong activity on both ethametsulfuron and chlorsulfuron; clone L1-22 has strong sulfometuron activity; clone L1-29 has moderate metsulfuron activity; and clone L1-44 has moderate activity on metsulfuron, ethametsulfuron and chlorsulfuron. (Data not shown.). No clones found in the initial screen were exceptionally reactive to metsulfuron. These four clones were also chosen due to their relatively strong repressor activity, showing low β-gal background activity without inducer. Strong repressor activity is important for establishing a system which is both highly sensitive to the presence of inducer, and tightly off in the absence of inducer.
Based on the sequence information from parental clones L1-9, -22, -29 and -44, two second round libraries were designed, constructed and screened. The first library, L2, consisted of a ‘family’ shuffle whereby the amino acid diversity between the selected parental clones was varied using synthetic assembly of oligonucleotides to find clones improved in responsiveness to any of the four new target ligands.
The L2 oligonucleotides were assembled, cloned and screened as per the protocol described for library L1 except that each ligand was tested at 2 ppm to increase the stringency of the assay, which is a 10-fold reduction from 1st round library screening concentration.

[1] = library L1 initial screen, data not shown

B1: clone L1-44: SuR polypeptide, SEQ ID NO:13 (protein)
chain: MGSRLDKSKVINSALELLNEVGIEGLTTRKLAQKLGVEQPTLYWHVKNKRALLDALAIEMLDRHATHFCPLEGESWQDFLRNNAKSYRCALLSHRDGAKVYLGTAVTEKQYETAENQLAFLCQQGFSLENALYAVKAVAGFTLGCVLWDQESQVAKEERETPTTASMPPLLRQAVELADHQGAEPAFLFGLELIICGLEKQLKCESGS
modifications: Sulfonylurea responsive repressor
induction activity on chlorsulfuron [1]: moderate
induction activity on ethametsulfuron [1]: moderate
induction activity on metsulfuron [1]: moderate
Inducer preference (β-gal colony assay, L2 library screened with each ligand at 2 ppm, numbers are the patent's inducer ligand numbers, atc for wt): 9 (weak)
